Test [1] concerns the target HIV-1 reverse transcriptase p66 p66 (Human immunodeficiency virus 1) (UniProt O93215). The settings on record: cited from earlier work.
Test [2] addresses p51 (polymerase domain of HIV-1 reverse transcriptase) (HIV-1) (UniProt P03366). Briefly: NMR.

In general, Kd refers to the equilibrium constant for the complex coming apart. As to “HIV-1 reverse transcriptase p66 p66 (from UniProt O93215)”, the Kd in test [1] was 4 µM.
By stoichiometry N is commonly meant a count of units in the complex or per binding partner. As for “p51 (polymerase domain of HIV-1 reverse transcriptase) (from UniProt P03366 600-1025) (domain or fragment)”, in test [2], the percent dimeric amounted to 80% and the stoichiometry N was 2.
